These results are taken from PMC5759053 (Glia, 2017).

The assay addresses aquaporin-4 (AQP4) M1 isoform, expressed in HEK 293 cells (UniProt P55088-1 1-323). In words: co-IP.

aquaporin-4 (AQP4) M1 isoform, expressed in HEK 293 cells, sequence (P55088 whole entry, canonical isoform): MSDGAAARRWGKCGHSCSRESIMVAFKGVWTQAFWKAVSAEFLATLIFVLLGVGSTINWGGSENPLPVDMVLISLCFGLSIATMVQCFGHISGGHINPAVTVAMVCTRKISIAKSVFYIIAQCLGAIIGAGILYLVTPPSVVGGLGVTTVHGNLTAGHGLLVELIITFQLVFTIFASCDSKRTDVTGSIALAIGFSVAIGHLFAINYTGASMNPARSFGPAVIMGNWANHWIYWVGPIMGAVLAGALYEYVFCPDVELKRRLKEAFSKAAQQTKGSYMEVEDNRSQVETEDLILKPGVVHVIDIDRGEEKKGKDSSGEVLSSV

B1: TRPM4, expressed in HEK 293 cells (natural protein)
chain: not shown
Take B1: the “fold TRPM4 co-precipitated with AQP4 in SUR1+ cells against SUR1- cells” value was determined as 4 fold.
